The target in the assay is T1, VP16 fused near full-length AR (nAR, aa 36-918) (human, UniProt P10275 36-919).
T1 sequence: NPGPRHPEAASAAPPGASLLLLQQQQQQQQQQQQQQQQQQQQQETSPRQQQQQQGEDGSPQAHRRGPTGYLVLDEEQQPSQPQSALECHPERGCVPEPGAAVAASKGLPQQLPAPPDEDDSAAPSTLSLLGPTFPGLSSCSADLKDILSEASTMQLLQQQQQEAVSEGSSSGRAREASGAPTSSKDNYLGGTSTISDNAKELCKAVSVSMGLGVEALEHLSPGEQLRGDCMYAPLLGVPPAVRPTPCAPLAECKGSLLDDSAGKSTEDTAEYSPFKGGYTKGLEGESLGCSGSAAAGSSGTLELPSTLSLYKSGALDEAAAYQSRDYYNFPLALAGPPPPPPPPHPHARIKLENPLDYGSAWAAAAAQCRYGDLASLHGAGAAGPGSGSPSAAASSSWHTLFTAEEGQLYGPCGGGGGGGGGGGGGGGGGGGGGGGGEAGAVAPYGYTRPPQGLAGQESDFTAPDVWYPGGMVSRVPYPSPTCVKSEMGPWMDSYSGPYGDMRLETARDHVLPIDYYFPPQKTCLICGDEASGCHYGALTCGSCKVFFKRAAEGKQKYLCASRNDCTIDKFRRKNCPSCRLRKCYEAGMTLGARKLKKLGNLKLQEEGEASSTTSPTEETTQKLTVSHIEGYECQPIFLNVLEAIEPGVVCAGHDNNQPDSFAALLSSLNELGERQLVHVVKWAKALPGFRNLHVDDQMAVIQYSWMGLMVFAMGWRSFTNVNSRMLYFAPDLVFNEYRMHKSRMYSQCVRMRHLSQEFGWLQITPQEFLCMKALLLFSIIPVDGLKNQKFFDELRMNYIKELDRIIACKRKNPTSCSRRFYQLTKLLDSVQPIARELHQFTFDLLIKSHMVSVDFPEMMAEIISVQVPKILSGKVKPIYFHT
Description: mammalian two-hybrid, DU145, CAT.

B1: PR-LBD (mammalian two-hybrid construct) (receptor, UniProt P06401 679-933, looked up)
chain: QDIQLIPPLINLLMSIEPDVIYAGHDNTKPDTSSSLLTSLNQLGERQLLSVVKWSKSLPGFRNLHIDDQITLIQYSWMSLMVFGLGWRSYKHVSGQMLYFAPDLILNEQRMKESSFYSLCLTMWQIPQEFVKLQVSQEEFLCMKVLLLLNTIPLEGLRSQTQFEEMRSSYIRELIKAIGLRQKGVVSSSQRFYQLTKLLDNLHDLVKQLHLYCLNTFIQSRALSVEFPEMMSEVIAAQLPKILAGMVKPLLFHKK
notes: domain: LBD; Construct not described
B1: the binding result is recorded as “no binding”.

(Values after US20060270591A1 (published 2006).)
